The target of series [1] is T1, cAMP receptor protein from Mycobacterium tuberculosis (Mycobacterium tuberculosis), P9WMH3.
T1 chain: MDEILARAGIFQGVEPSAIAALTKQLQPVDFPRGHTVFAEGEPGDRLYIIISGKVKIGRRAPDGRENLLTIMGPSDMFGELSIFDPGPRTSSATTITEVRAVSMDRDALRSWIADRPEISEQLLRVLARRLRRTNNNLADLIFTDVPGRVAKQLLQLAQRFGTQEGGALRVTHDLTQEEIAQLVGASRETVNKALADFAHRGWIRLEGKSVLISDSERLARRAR
Description: AUC. The following applies: remark: other sources report otherwise.

In series [2] the target is T1, cAMP receptor protein from …. Description: SEC. The following applies: remark: other sources report otherwise.
Series [3] deals with T2, CRP-MTB L47P (Mycobacterium tuberculosis, UniProt P9WMH3 1-224, L47P).
T2 sequence: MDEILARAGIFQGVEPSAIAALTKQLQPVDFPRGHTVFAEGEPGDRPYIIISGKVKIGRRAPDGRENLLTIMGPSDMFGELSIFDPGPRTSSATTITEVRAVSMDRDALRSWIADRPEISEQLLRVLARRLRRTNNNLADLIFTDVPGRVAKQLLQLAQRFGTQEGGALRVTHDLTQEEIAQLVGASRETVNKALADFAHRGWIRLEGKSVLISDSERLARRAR
Description: fluorescence anisotropy; 0.1 mM cAMP. The note with it: protein: recombinant; tags: His-tag (pET-3a); chain copies: 2; blunt. (In fluorescence polarisation assays a small probe gives low polarisation when free and higher when bound to something large.)

The target of series [4] is T3, CRP-MTB E178K (Mycobacterium tuberculosis, UniProt P9WMH3 1-224, E178K).
T3 sequence: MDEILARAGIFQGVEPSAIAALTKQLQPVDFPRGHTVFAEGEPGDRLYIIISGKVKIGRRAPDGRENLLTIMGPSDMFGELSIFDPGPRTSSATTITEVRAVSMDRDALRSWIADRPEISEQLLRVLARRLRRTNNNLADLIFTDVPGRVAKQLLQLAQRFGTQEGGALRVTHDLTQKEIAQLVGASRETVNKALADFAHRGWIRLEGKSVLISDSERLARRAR
The series is described as follows: fluorescence anisotropy; 0.1 mM cAMP. The following applies: protein: recombinant; tags: His-tag (pET-3a); chain copies: 2; blunt.

Series [5] concerns the target T3, CRP-MTB E178K. The series is described as follows: fluorescence anisotropy; 1 mM cAMP. The note with it: protein: recombinant; tags: His-tag (pET-3a); chain copies: 2; blunt.
Series [6] deals with T2, CRP-MTB L47P. Description: fluorescence anisotropy; no cAMP (apo). The note with it: protein: recombinant; tags: His-tag (pET-3a); chain copies: 2; blunt.
In series [7] the target is T3, CRP-MTB E178K. Description: fluorescence anisotropy; no cAMP (apo). The following applies: protein: recombinant; tags: His-tag (pET-3a); chain copies: 2; blunt.

B1: cAMP receptor protein from Mycobacterium tuberculosis, P9WMH3 (natural protein)
chain: MDEILARAGIFQGVEPSAIAALTKQLQPVDFPRGHTVFAEGEPGDRLYIIISGKVKIGRRAPDGRENLLTIMGPSDMFGELSIFDPGPRTSSATTITEVRAVSMDRDALRSWIADRPEISEQLLRVLARRLRRTNNNLADLIFTDVPGRVAKQLLQLAQRFGTQEGGALRVTHDLTQEEIAQLVGASRETVNKALADFAHRGWIRLEGKSVLISDSERLARRAR
As for B1, in series [1], the Kd is under 10 nM and the stoichiometry N worked out at 2. Moreover, in series [2], the stoichiometry N is 2.

B2: SerC promoter 32-bp, fluorescein (dsDNA)
DNA 1: GCGCGTAGTGTGAACAAGCTCACATGCAAGCC
DNA 2: GGCTTGCATGTGAGCTTGTTCACACTACGCGC
B2: the Ka with CRP-MTB L47P [3] was 7.3 ± 3 1e8 M-1; with CRP-MTB E178K [4] it was 10 ± 5 1e8 M-1; in the series with CRP-MTB E178K [5], 21 ± 12.9 1e8 M-1; with CRP-MTB L47P [6], 2.7 ± 0.9 1e8 M-1; with CRP-MTB E178K [7], 15 ± 5.3 1e8 M-1.

One may read the Kd as the equilibrium constant for the complex coming apart. The term stoichiometry N denotes the number of molecules, sites or subunits per partner or assembly.

Values taken from paper PMC8026907.
